Test results from patent US10105442B2, “Treatment of diabetes type 1 using GLP-1 and anti-IL-21” (Novo Nordisk A/S, priority 2014, dated 2018).

Legend:
[1] = system: recent-onset NOD mouse model; test: Determination of blood glucose effect in recent-onset NOD model (Assay V; Examples 1-3); format: in vivo
Description: Assay (V): Determination of Blood Glucose Effect in NOD Model
The purpose of this experiment was to determine the effect of administration of a GLP-1 agonist, such as the GLP-1 peptide, and/or an inhibitor of IL-21 function on blood glucose.
(§1) The recent-onset NOD mouse model was used. Mice were screened twice weekly and diabetes onset was defined as 2 consecutive blood glucose values of >250 mg/dL. Mice were enrolled into the experiment starting at 11 weeks of age and continued to be enrolled through 26 weeks of age. Dosing was weight based.
(§2) Blood glucose was measured by using a blood glucose meter (Bayer Contour USB) with the corresponding blood glucose strips. Mice with a blood glucose level>250 mg/dL on two consecutive days were considered diabetic. […] If the measurement was again >250 mg/dL, the animal was recorded as diabetic, enrolled into a treatment group, and was monitored further until it reached two consecutive readings of >600 mg/dL. At this time the mouse was sacrificed. Mice were also sacrificed before they reached a blood glucose value of >600 mg/dL if their overall condition was deteriorating, as determined by weight and/or overall appearance.
The mouse surrogate anti-IL-21 antibody was prepared by immunization of 6 to 8 week old BALB/c mice by s.c. injection with recombinant mouse IL-21 in a mixture of adjuvants. […] (SEQ ID No 13).
(§3) Anti-IL-21 was administered i.p. five times twice weekly starting immediately after inclusion of mice, i.e. from Day 0. […] Mouse surrogate anti-IL-21 is an mIgG1/kappa isotype with the VL amino acid sequence: […] […] […] (SEQ ID NO:26), and the VH amino acid sequence: […] […] […] (SEQ ID NO:27). […] Before use, anti-IL-21 was diluted in buffer (20 mM phosphate, 150 mM NaCl, pH=7.4). Aliquots of anti-IL-21 for injection into the animals were only thawed once.
Enrolment of mice of as described in Example 1 was continued adding 9, 8, 8 and 8 subjects to the treatment groups 1 to 4, respectively.

[2] = system: recent-onset NOD mouse model; test: Liraglutide in combination with Anti-IL-21 in the NOD model, confirmation study (Example 4); format: in vivo
Description: as §1, §2, §3

[3] = system: pancreatic tissue (islets, insulitis) of NOD mice; test: Histological examination of pancreatic tissue of NOD mice (H&E, CD8/CD4 and insulin staining); format: in vivo, mouse
Description: Histological examination: The histological analyses were performed on pancreatic tissue from a subset of mice from each group. Sections were stained with Hematoxylin and eosin (H&E) to assess insulitis and immunofluorescent staining with either CD8 and insulin or CD4 and insulin to assess insulitis and also characterize cell types within infiltrates.

[4] = molecular target: murine IL-21 (Mus musculus, UniProt Q9ES17); test: Inhibition of IL-21 mediated STAT-3 phosphorylation in BaF3/KZ134/hIL-21R cells (Assay III); format: cell-based; settings: selected antibody clone
Description: Assay (III): Inhibition of IL-21 Mediated STAT-3 Phosphorylation.
The ability of anti-IL-21 antibodies to neutralize IL-21 can be measured in a cell based assay using phosphorylation of STAT3 as read-out. BaF3 cells transfected with IL-21 receptor (IL-21R) are used and as IL-21 induces STAT3 phosphorylation reduction hereof by an anti-IL-21 antibody reflects the IL-21 neutralization activity.
Reduction in murine IL-21 activity in the presence of antibody containing supernatant was determined by measuring the level of STAT3-phosphorylation following ligand-receptor interaction in BaF3/KZ134/hIL-21R cells.
Relative neutralization activity was determined based on the percentage decrease in phosphorylated-STAT3 levels relative to control cells incubated with ligand alone. Baf3/KZ134/hIL-21R cells are plated in 96-well round-bottom tissue culture plates at a density of 50,000 cells/well. Murine IL-21 was pre-incubated with the supernatant from each tested well before transfer to the plated cells. The reactions were stopped and cells lyzed according to the manufacturer's instructions, (BIO-RAD Laboratories). Supernatants were collected, mixed with assay buffer and stored. […] The level of phosphorylated-STAT3 was determined on an array reader (BIO-PLEX, BIO-RAD Laboratories) according to the manufacturer's instructions. […]

B1: Anti-IL-21: Mouse surrogate anti-IL-21 antibody, mIgG1/kappa isotype, VL SEQ ID NO:26 and VH SEQ ID NO:27, raised against recombinant mouse IL-21 (antibody, V domains shown)
VH: MNFGPSLIFLVLILKGVQCEVQLVESGGGLVKPGGSLKLSCAASGFTFNRYSMSWVRQSPEKRLEWVAEISVGGSYTQYVDIVTGRFTISRDNAKNTLYLEMSSLRSEDTAMYYCARLYYSGSGDSYYYAMDYWGQGTSVTVSS
VL: MDFQVQIFSFLLISASVILSRGQTVLIQSPAIMSASPGEKVTMTCSASSSVSYMHWYQQKSGTSPKRWIYDTSKLASGVPARFSGSGSGTSYSLTISSMEAEDAATYYCQQWNSNPPTFGGGTKLEMK
B1 was tested, and the “Effect on hyperglycemia (in words)” value ([1]; Example 1, NOD mice, 70 days) was “able to reverse hyperglycemia in some of the mice”, the “Mice in which diabetes was reversed (BGV lowered to below 250 mg/dL)” value ([1]; Examples 1 and 2 compiled, FIG. 5A, 35 days period) was “half of the mice” and the “Number of mice surviving / remaining viable throughout the study period of 70 days (in words)” value ([1]; Examples 1 and 2 compiled, FIGS. 3 and 4) was “substantial number”. For the same molecule, the “Average blood glucose +/− SD” value ([1]; Table 1, Example 1 mice (N = 10 per group at onset), day 0 post diabetes onset) was 351 ± 56 mg/dL, the “Average blood glucose +/− SD” value ([1]; Table 1, Example 1 mice, day 4 post diabetes onset) was 370 ± 73 mg/dL and the “Average blood glucose +/− SD” value ([1]; Table 1, Example 1 mice, day 7 post diabetes onset) was 404 ± 93 mg/dL. For the same molecule, the “Average blood glucose +/− SD” value ([1]; Table 1, Example 1 mice, day 11 post diabetes onset) was 405 ± 160 mg/dL, the “Average blood glucose +/− SD” value ([1]; Table 1, Example 1 mice, day 14 post diabetes onset) was 379 +/− 139 (n = 8) mg/dL and the “Average blood glucose +/− SD” value ([1]; Table 1, Example 1 mice, day 18 post diabetes onset) was 351 +/− 178 (n = 7) mg/dL. For the same molecule, the “Average blood glucose +/− SD” value ([1]; Table 1, Example 1 mice, day 21 post diabetes onset) was 285 +/− 151 (n = 6) mg/dL, the “Average blood glucose +/− SD” value ([1]; Table 1, Example 1 mice, day 25 post diabetes onset) was 279 +/− 169 (n = 6) mg/dL and the “Average blood glucose +/− SD” value ([1]; Table 1, Example 1 mice, day 28 post diabetes onset) was 204 +/− 95 (n = 5) mg/dL. The “Average blood glucose +/− SD” value ([1]; Table 1, Example 1 mice, day 32 post diabetes onset) was 221 +/− 101 (n = 5) mg/dL, the “Average blood glucose +/− SD” value ([1]; Table 1, Example 1 mice, day 35 post diabetes onset) was 205 +/− 116 (n = 5) mg/dL and the “Average blood glucose +/− SD” value ([1]; Table 1, Example 1 mice, day 39 post diabetes onset (liraglutide withdrawn after day 35)) was 224 +/− 140 (n = 5) mg/dL. The “Average blood glucose +/− SD” value ([1]; Table 1, Example 1 mice, day 42 post diabetes onset (liraglutide withdrawn after day 35)) was 215 +/− 112 (n = 5) mg/dL, the “Average blood glucose +/− SD” value ([1]; Table 1, Example 1 mice, day 46 post diabetes onset (liraglutide withdrawn after day 35)) was 201 +/− 122 (n = 5) mg/dL and the “Average blood glucose +/− SD” value ([1]; Table 1, Example 1 mice, day 49 post diabetes onset (liraglutide withdrawn after day 35)) was 217 +/− 140 (n = 5) mg/dL. For the same molecule, the “Average blood glucose +/− SD” value ([1]; Table 1, Example 1 mice, day 53 post diabetes onset (liraglutide withdrawn after day 35)) was 229 +/− 186 (n = 5) mg/dL, the “Average blood glucose +/− SD” value ([1]; Table 1, Example 1 mice, day 56 post diabetes onset (liraglutide withdrawn after day 35)) was 128 +/− 10 (n = 4) mg/dL and the “Average blood glucose +/− SD” value ([1]; Table 1, Example 1 mice, day 60 post diabetes onset (liraglutide withdrawn after day 35)) was 174 +/− 59 (n = 4) mg/dL. The “Average blood glucose +/− SD” value ([1]; Table 1, Example 1 mice, day 63 post diabetes onset (liraglutide withdrawn after day 35)) was 156 +/− 30 (n = 4) mg/dL, the “Average blood glucose +/− SD” value ([1]; Table 1, Example 1 mice, day 67 post diabetes onset (liraglutide withdrawn after day 35)) was 138 +/− 16 (n = 4) mg/dL and the “Average blood glucose +/− SD” value ([1]; Table 1, Example 1 mice, day 70 post diabetes onset (liraglutide withdrawn after day 35)) was 153 +/− 30 (n = 4) mg/dL. For the same molecule, the “Average blood glucose +/− SD” value ([1]; Table 2, additional mice (Example 2), day 0 post diabetes onset) was 353 +/− 59 (n = 8) mg/dL, the “Average blood glucose +/− SD” value ([1]; Table 2, additional mice (Example 2), day 4 post diabetes onset) was 326 +/− 104 (n = 8) mg/dL and the “Average blood glucose +/− SD” value ([1]; Table 2, additional mice (Example 2), day 7 post diabetes onset) was 375 +/− 103 (n = 8) mg/dL. The “Average blood glucose +/− SD” value ([1]; Table 2, additional mice (Example 2), day 11 post diabetes onset) was 361 +/− 125 (n = 8) mg/dL, the “Average blood glucose +/− SD” value ([1]; Table 2, additional mice (Example 2), day 14 post diabetes onset) was 338 +/− 153 (n = 8) mg/dL and the “Average blood glucose +/− SD” value ([1]; Table 2, additional mice (Example 2), day 18 post diabetes onset) was 336 +/− 183 (n = 8) mg/dL. For the same molecule, the “Average blood glucose +/− SD” value ([1]; Table 2, additional mice (Example 2), day 21 post diabetes onset) was 248 +/− 153 (n = 6) mg/dL, the “Average blood glucose +/− SD” value ([1]; Table 2, additional mice (Example 2), day 28 post diabetes onset) was 219 +/− 162 (n = 6) mg/dL and the “Average blood glucose +/− SD” value ([1]; Table 2, additional mice (Example 2), day 35 post diabetes onset) was 147 +/− 15 (n = 5) mg/dL. The “Average blood glucose +/− SD” value ([1]; Table 2, additional mice (Example 2), day 42 post diabetes onset (liraglutide withdrawn after day 35)) was 264 +/− 121 (n = 2^#) mg/dL, the “Average blood glucose +/− SD” value ([1]; Table 2, additional mice (Example 2), day 49 post diabetes onset (liraglutide withdrawn after day 35)) was 118 +/− 17 (n = 2) mg/dL and the “Average blood glucose +/− SD” value ([1]; Table 2, additional mice (Example 2), day 56 post diabetes onset (liraglutide withdrawn after day 35)) was 286 +/− 107 (n = 2) mg/dL. For the same molecule, the “Average blood glucose +/− SD” value ([1]; Table 2, additional mice (Example 2), day 63 post diabetes onset (liraglutide withdrawn after day 35)) was 314 +/− 157 (n = 2) mg/dL, the “Average blood glucose +/− SD” value ([1]; Table 2, additional mice (Example 2), day 70 post diabetes onset (liraglutide withdrawn after day 35)) was 400 +/− 108 (n = 2) mg/dL and the “Average blood glucose +/− SD” value ([1]; Table 3, all mice (Examples 1 and 2 compiled), day 0 post diabetes onset) was 352 +/− 57 (n = 18) mg/dL. The “Average blood glucose +/− SD” value ([1]; Table 3, all mice (Examples 1 and 2 compiled), day 4 post diabetes onset) was 351 +/− 91 (n = 18) mg/dL, the “Average blood glucose +/− SD” value ([1]; Table 3, all mice (Examples 1 and 2 compiled), day 7 post diabetes onset) was 391 +/− 99 (n = 18) mg/dL and the “Average blood glucose +/− SD” value ([1]; Table 3, all mice (Examples 1 and 2 compiled), day 11 post diabetes onset) was 385 +/− 147 (n = 18) mg/dL. The “Average blood glucose +/− SD” value ([1]; Table 3, all mice (Examples 1 and 2 compiled), day 14 post diabetes onset) was 358 +/− 148 (n = 16) mg/dL, the “Average blood glucose +/− SD” value ([1]; Table 3, all mice (Examples 1 and 2 compiled), day 18 post diabetes onset) was 343 +/− 181 (n = 15) mg/dL and the “Average blood glucose +/− SD” value ([1]; Table 3, all mice (Examples 1 and 2 compiled), day 21 post diabetes onset) was 267 +/− 153 (n = 12) mg/dL. The “Average blood glucose +/− SD” value ([1]; Table 3, all mice (Examples 1 and 2 compiled), day 28 post diabetes onset) was 212 +/− 136 (n = 11) mg/dL, the “Average blood glucose +/− SD” value ([1]; Table 3, all mice (Examples 1 and 2 compiled), day 35 post diabetes onset) was 176 +/− 88 (n = 10) mg/dL and the “Average blood glucose +/− SD” value ([1]; Table 3, all mice (Examples 1 and 2 compiled), day 42 post diabetes onset (liraglutide withdrawn after day 35)) was 229 +/− 117 (n = 7^#) mg/dL. For the same molecule, the “Average blood glucose +/− SD” value ([1]; Table 3, all mice (Examples 1 and 2 compiled), day 49 post diabetes onset (liraglutide withdrawn after day 35)) was 189 +/− 127 (n = 7) mg/dL, the “Average blood glucose +/− SD” value ([1]; Table 3, all mice (Examples 1 and 2 compiled), day 56 post diabetes onset (liraglutide withdrawn after day 35)) was 181 +/− 97 (n = 6) mg/dL and the “Average blood glucose +/− SD” value ([1]; Table 3, all mice (Examples 1 and 2 compiled), day 63 post diabetes onset (liraglutide withdrawn after day 35)) was 209 +/− 119 (n = 6) mg/dL. The “Average blood glucose +/− SD” value ([1]; Table 3, all mice (Examples 1 and 2 compiled), day 70 post diabetes onset (liraglutide withdrawn after day 35)) was 236 +/− 134 (n = 6) mg/dL, the “Survival through 70 days post onset of hyperglycaemia” value ([2]; Example 4) was 75% and the “Mice with established hyperglycaemia cured / reversed” value ([2]; Example 4, first 35 days post disease onset) was 75%. For the same molecule, the “Cellular infiltration of pancreas (in words)” value ([3]; subset of mice from each group) was “decreased extent of infiltration”, the “Insulitis (in words)” value ([3]; surviving mice) was “reduced” and the “Neutralizing activity in STAT3 phosphorylation assay (in words)” value [4] was “strong neutralizing activity”.
